# Source: PMC12013499
# Legend:
# Test in all cases: EMSA
# Details in all cases: EMSA: 0.5 pmol 32P-tRNA, 0-4 uM enzyme, 20 C, 10 min, 18.5% glycerol added, 5% native PAGE; buffer and pH not given (as in cited refs); n = 3
# [1] = system: T1, AsuCCA-Hsaβ (Ascaris suum / Homo sapiens chimera)
# T1 sequence: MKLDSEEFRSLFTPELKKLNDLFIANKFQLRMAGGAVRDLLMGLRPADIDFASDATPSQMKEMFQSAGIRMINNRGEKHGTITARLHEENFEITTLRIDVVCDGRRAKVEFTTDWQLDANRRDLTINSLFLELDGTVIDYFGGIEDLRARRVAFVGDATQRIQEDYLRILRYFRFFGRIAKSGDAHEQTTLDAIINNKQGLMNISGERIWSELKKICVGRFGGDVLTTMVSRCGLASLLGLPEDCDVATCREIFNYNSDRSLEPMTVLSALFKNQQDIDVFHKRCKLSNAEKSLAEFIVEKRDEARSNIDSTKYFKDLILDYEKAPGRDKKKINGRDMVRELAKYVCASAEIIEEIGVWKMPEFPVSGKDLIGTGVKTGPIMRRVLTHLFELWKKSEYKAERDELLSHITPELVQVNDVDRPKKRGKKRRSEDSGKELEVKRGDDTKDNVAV
# [2] = system: T2, HsaCCA-AsuC40 (Homo sapiens / Ascaris suum chimera)
# T2 sequence: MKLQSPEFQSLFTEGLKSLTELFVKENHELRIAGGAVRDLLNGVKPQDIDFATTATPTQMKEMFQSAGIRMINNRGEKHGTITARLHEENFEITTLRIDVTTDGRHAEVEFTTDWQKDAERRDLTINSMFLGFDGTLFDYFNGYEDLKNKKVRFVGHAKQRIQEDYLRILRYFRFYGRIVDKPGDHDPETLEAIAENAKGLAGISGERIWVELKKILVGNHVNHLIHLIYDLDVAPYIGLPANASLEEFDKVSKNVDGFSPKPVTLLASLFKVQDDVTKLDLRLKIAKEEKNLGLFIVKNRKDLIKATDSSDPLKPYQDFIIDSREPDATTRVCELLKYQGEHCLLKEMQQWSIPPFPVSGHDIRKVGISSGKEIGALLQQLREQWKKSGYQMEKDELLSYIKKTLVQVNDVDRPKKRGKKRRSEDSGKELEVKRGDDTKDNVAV
# AsuCCA (Ascaris suum) = system: T3, AsuCCA (Ascaris suum)
# T3 sequence: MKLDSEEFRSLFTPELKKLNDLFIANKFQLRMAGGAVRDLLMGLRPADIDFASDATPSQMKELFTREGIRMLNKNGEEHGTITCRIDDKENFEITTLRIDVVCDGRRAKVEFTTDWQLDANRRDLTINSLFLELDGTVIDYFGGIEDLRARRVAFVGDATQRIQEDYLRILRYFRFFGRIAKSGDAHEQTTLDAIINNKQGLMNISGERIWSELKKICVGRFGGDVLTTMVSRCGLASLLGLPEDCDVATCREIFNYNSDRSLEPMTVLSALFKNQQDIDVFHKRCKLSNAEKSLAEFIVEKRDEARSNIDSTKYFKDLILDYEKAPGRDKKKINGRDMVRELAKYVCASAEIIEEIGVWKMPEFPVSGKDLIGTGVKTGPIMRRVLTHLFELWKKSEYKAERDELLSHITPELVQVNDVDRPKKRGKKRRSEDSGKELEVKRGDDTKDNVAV
# [3] = system: T4, RcuCCA (Romanomermis culicivorax)
# T4 sequence: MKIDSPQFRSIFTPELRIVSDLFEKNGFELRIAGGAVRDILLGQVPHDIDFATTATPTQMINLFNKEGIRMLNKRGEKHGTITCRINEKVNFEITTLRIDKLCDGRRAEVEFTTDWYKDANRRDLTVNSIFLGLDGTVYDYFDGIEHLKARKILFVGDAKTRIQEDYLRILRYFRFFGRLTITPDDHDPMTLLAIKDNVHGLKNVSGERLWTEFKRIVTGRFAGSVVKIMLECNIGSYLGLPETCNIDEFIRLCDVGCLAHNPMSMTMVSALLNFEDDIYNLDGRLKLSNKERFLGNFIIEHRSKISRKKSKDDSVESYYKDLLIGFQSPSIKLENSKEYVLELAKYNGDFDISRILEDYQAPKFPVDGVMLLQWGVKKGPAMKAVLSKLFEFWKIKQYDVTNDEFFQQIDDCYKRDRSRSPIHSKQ
# [4] = system: T5, AsuCCA ΔC40 delC-terminal 40 residues (Ascaris suum)
# T5 sequence: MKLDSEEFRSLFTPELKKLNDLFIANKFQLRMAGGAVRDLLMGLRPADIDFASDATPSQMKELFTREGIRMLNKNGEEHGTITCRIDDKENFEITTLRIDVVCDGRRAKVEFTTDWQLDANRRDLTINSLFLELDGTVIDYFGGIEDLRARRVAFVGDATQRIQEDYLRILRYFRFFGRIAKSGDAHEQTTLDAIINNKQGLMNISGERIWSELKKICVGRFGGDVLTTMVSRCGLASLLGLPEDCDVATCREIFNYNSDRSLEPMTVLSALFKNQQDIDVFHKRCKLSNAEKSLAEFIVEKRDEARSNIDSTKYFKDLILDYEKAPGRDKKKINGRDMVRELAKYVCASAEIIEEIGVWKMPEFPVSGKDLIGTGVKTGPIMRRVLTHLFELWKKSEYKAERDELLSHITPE
Substance,Kd [1],Kd [2],Kd (AsuCCA (Ascaris suum)),Kd [3],Kd [4]
Rcu mt-tRNAIle (armless),300 nM,600 nM,1100 nM,1400 nM,–
Sce tRNAPhe (canonical),300 nM,700 nM,500 nM,1600 nM,1700 nM
